The values below come from patent US20180111975.

Common to all, as to experiment: cell_activity
For one series, the system named is ZFN 51463 (synthetic). Particulars: paired with 51536, CD34+ cells.
The subject of a further series is ZFN 51446 (synthetic). To be noted: paired with 51536, CD34+ cells.
The subject of a further series is ZFN 51519 (synthetic). Particulars: paired with 51446, CD34+ cells.
The subject of the next series is ZFN 51990 (synthetic). To be noted: paired with 51857, CD34+ cells, 500 ng mRNA each.
Another series deals with ZFN 52032 (synthetic). To be noted: paired with 51857, CD34+ cells, 500 ng mRNA each.
A further series concerns ZFN 51536 (synthetic). To be noted: paired with 51446, CD34+ cells.
For the next series, the system named is ZFN 47923 (synthetic). Particulars: paired with 46801, K562, 25 ng each.
In the next series the test system is ZFN 51541 (synthetic). To be noted: paired with 51446, CD34+ cells.
A further series has as its system ZFN 51534 (synthetic). To be noted: paired with 51446, CD34+ cells.
Another series has as its system ZFN 51556 (synthetic). Particulars: paired with 51446, CD34+ cells.
For the next series, the system named is ZFN 52015 (synthetic). To be noted: paired with 51857, CD34+ cells, 500 ng mRNA each.
The next series deals with ZFN 51979 (synthetic). Particulars: paired with 51857, CD34+ cells, 500 ng mRNA each.
For a further series, the system named is ZFN 51535 (synthetic). To be noted: paired with 51446, CD34+ cells.
A further series deals with ZFN 51982 (synthetic). Particulars: paired with 51857, CD34+ cells, 500 ng mRNA each.
Another series relates to ZFN 51993 (synthetic). To be noted: paired with 51857, CD34+ cells, 500 ng mRNA each.
The subject of the next series is ZFN 51856 (synthetic). Particulars: paired with 51949, CD34+ cells, 500 ng mRNA each.
The test system of the next series is ZFN 51862 (synthetic). Particulars: paired with 51949, CD34+ cells, 500 ng mRNA each.
The test system of a further series is ZFN 46801 (synthetic). Particulars: paired with 47923, K562, 25 ng each.
Another series relates to ZFN 51477 (synthetic). Particulars: paired with 51536, CD34+ cells.
Another series relates to ZFN 51484 (synthetic). To be noted: paired with 51536, CD34+ cells.
A further series has as its system ZFN 51487 (synthetic). Particulars: paired with 51536, CD34+ cells.
The test system of the next series is ZFN 51478 (synthetic). Particulars: paired with 51536, CD34+ cells.

Take “AAAGCAACTGTTAGCTTGCACTAGACTA (double strand) [BCL11A +58 enhancer left half-site, 4-finger]”: the activity worked out at 82.7 % indels with ZFN 51463 (synthetic) and 83.7 % indels with ZFN 51446 (synthetic).
Turning to “CACAGGCTCCAGGAAGGGTTTGGCCTCT (double strand) [BCL11A +58 enhancer right half-site]”, the activity in the series on ZFN 51519 (synthetic) worked out at 81.5 % indels; in the series on ZFN 51990 (synthetic) it was 51 % indels; with ZFN 52032 (synthetic), 53.9 % indels; in the series on ZFN 51536 (synthetic), 83.7 % indels; in the series with ZFN 47923 (synthetic), 9.3 % NHEJ; with ZFN 51541 (synthetic), 87.8 % indels. For the same sequence, the activity with ZFN 51534 (synthetic) was found to be 84.2 % indels; in the series with ZFN 51556 (synthetic) it was 74.1 % indels; in the series on ZFN 52015 (synthetic), 35.2 % indels; with ZFN 51979 (synthetic), 39.8 % indels; in the series on ZFN 51535 (synthetic) it was 82.2 % indels; in the series with ZFN 51982 (synthetic), 30.9 % indels. Also, in the series on ZFN 51993 (synthetic), the activity turned out to be 43.9 % indels.
“AAAGCAACTGTTAGCTTGCACTAGACTA (double strand) [BCL11A +58 enhancer left half-site, 6-finger]”: the activity in the series with ZFN 51856 (synthetic) worked out at 38.4 % indels; in the series on ZFN 51862 (synthetic) it was 18.4 % indels; in the series with ZFN 46801 (synthetic), 9.3 % NHEJ; with ZFN 51477 (synthetic), 72 % indels; with ZFN 51484 (synthetic), 75.2 % indels; in the series on ZFN 51487 (synthetic) it was 66.3 % indels. The sequence also registered an activity in the series on ZFN 51478 (synthetic) of 72.3 % indels.
